Data: patent US20190202921A1 (Five Prime, published 2019)

Molecular target: T1, rat PD-1 (rat, UniProt D3ZIN8 25-287)
T1 sequence: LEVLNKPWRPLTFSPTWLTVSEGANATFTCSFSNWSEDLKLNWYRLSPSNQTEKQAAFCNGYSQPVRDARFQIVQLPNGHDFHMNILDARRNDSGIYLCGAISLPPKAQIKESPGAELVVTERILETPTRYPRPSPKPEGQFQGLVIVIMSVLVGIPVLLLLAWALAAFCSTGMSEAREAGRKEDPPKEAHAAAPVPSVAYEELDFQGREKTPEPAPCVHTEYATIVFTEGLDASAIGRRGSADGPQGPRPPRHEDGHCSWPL
Assay: FACS analysis

binding result: no binding
B1: nivolumab (antibody, human IgG4 S228P, kappa, V domains shown)
VH: QVQLVESGGGVVQPGRSLRLDCKASGITFSNSGMHWVRQAPGKGLEWVAVIWYDGSKRYYADSVKGRFTISRDNSKNTLFLQMNSLRAEDTAVYYCATNDDYWGQGTLVTVSS
VL: EIVLTQSPATLSLSPGERATLSCRASQSVSSYLAWYQQKPGQAPRLLIYDASNRATGIPARFSGSGSGTDFTLTISSLEPEDFAVYYCQQSSNWPRTFGQGTKVEIKR
notes: Fully human IgG4 (S228P); also called Opdivo; 5C4
